Reference: patent US20260250363A1

Experiments:
Settings in all cases: remark: other sources report otherwise
[1] = target: T1, SARS-CoV-2 Spike Protein, wild type (R&D, Cat. #10549-CV) (SARS-CoV-2), P0DTC2; assay: competition ELISA: blocks biotin-ACE2 binding to coated spike
[2] = target: T1, SARS-CoV-2 Spike Protein, wild type …; assay: as above; remark: listed apart in the source
[3] = target: T2, SARS-CoV-2 C.37 Spike His Protein (R&D, Cat. #10887-CV) (SARS-CoV-2), P0DTC2; assay: as above
[4] = target: T3, SARS-CoV-2 AY.1 Spike Protein (R&D, Cat. #10922-CV) (SARS-CoV-2), P0DTC2; assay: as above
[5] = target: T1, SARS-CoV-2 Spike Protein, wild type …; assay: direct ELISA on coated spike
[6] = target: T2, SARS-CoV-2 C.37 Spike His Protein (R&D, …); assay: direct ELISA on coated spike
[7] = target: T3, SARS-CoV-2 AY.1 Spike Protein (R&D, …); assay: direct ELISA on coated spike
[8] = target: T2, SARS-CoV-2 C.37 Spike His Protein (R&D, …); assay: competition ELISA: blocks biotin-ACE2 binding to coated spike; remark: listed apart in the source
[9] = target: T3, SARS-CoV-2 AY.1 Spike Protein (R&D, …); assay: as above; remark: listed apart in the source
[10] = target: T1, SARS-CoV-2 Spike Protein, wild type …; assay: BLI (ForteBio), mAb on AHC sensor, spike in solution
[11] = target: T2, SARS-CoV-2 C.37 Spike His Protein (R&D, …); assay: as above
[12] = target: T3, SARS-CoV-2 AY.1 Spike Protein (R&D, …); assay: as above

B1: Casirivimab (antibody)
chain 1: QVQLVESGGGLVKPGGSLRLSCAASGFTFSDYYMSWIRQAPGKGLEWVSYITYSGSTIYYADSVKGRFTISRDNAKSSLYLQMNSLRAEDTAVYYCARDRGTTMVPFDYWGQGTLVTVSS
chain 2: DIQMTQSPSSLSASVGDRVTITCQASQDITNYLNWYQQKPGKAPKLLIYAASNLETGVPSRFSGSGSGTDFTFTISGLQPEDIATYYCQQYDNLPLTFGGGTKVEIK
IC50 [1]: 2.94 nM
IC50 [2]: 3.73 nM
IC50 [3]: 1.9 nM
IC50 [4]: 0.646 nM
EC50 [5]: 0.0557 nM
EC50 [6]: 0.0507 nM
EC50 [7]: 0.041 nM
IC50 [8]: 1.39 nM
IC50 [9]: 0.341 nM
Kd [10]: 2.85 nM
Kd [11]: 0.511 nM
Kd [12]: 1.08 nM
